From article PMC3905015

Molecular target: monomeric red fluorescent protein (mRFP)
Test: native MS; ESI-TWIMS-MS (nanoESI, Synapt HDMS), purified protein in 50 mM ammonium acetate; gas phase; self-association

stoichiometry N: 2
Substance: monomeric red fluorescent protein (mRFP)
